Experimental findings from patent US20240132589A1 (ONCORESPONSE, published 2024) are described below.

For test [1], the target named is T1, Human LILRB2 on primary human myeloid cells (human, UniProt Q8N423 22-597).
T1 construct: whole, on cells; the cell type is named under assay; also called LILRB2 on monocytes, M0 and M2c macrophages, myeloid dendritic cells, neutrophils
Description: flow cytometry, AF647-conjugated antibody on human M2c macrophages (10 subjects), average. As for the experimental part:
Anti-LILRB2 antibodies were evaluated for their ability to bind myeloid cell subsets expressing LILRB2, including monocytes, M0 macrophages, and M2c macrophages. M2c macrophages are used as a surrogate for tumor-associated macrophages, a suppressive macrophage commonly found in the tumor microenvironment. Frozen monocytes were removed from storage in vapor phase liquid nitrogen and thawed by gentle swirling in a water bath at 37° C., then resuspended in X-VIVO™ 15 media with 10% FBS. PBMC were placed in a 15 mL conical tube and centrifuged at 300×g for 5 minutes, then supernatant was removed. Cells were resuspended in Assay Medium (X-VIVO™ 15+10% FBS) at a cell density of 2.5×10⁵ cells/mL. Cells were plated into 96-well flat bottom plates at 100 μL/well (25K cells/well). M0 and M2c macrophages were generated as described in Example 10 and collected from flasks by incubation for 15 min at RT in Macrophage Detachment Solution DXF, then removed from the flask into X-VIVO™ 15 medium. Following centrifugation, the cells were resuspended in FACS Blocking Buffer D (FACS Buffer+10% FBS+0.5 mg/mL human IgG1) then incubated at 4° C. for 30 minutes. […]

Test [2] has as its target T2, Human LILRB3 on transiently transfected HEK293-6E cells (human, UniProt O75022 24-631).
T2 construct: whole, on cells; also called hLILRB3
Nature of the test: flow cytometry, transiently transfected HEK293-6E cells. How it is done: (§1) To determine that the anti-LILRB2 antibodies specifically bind to LILRB2 and not other LILRB and LILRA family members, a cross-reactivity assay was performed. Cross-reactivity of the LILRB2 antibodies to other LILRB proteins was assessed by antibody binding to transiently transfected HEK293-6E cells, measured by flow cytometry. Binding was evaluated to HEK293-6E cells transiently transfected with human LILRB-1, -2, -3, -4, and 5 plasmids (Origene, Nos. RC219949, RC217935, RC211228, RC220932, RC206516) or to cells transiently transfected with human LILRA-1, -2, -4, -5, and -6 plasmids (Origene, Nos. RC210808, RC205626, RC220452, RC212310 RC212965). […] Murine primary antibodies to LILRA and LILRB targets and corresponding isotype controls were used to confirm specific binding of all targets tested (R&D Systems) while an AF647 F(ab′)₂ fragment goat anti-mouse antibody (Jackson ImmunoResearch, No. 115-606-062) was used for the detection of bound positive control antibodies. No binding of B2A-IgG4 or B2A-IgG1 to LILRB-1, -3, -4, or -5 was observed, and no binding of either antibody to LILRA-1, -2, -4, -5, or -6 was observed, confirming specificity of these antibodies.

Test [3] addresses T3, Human LILRA2 on transiently transfected HEK293-6E cells (human, UniProt Q8N149 24-483).
T3 construct: whole, on cells; also called hLILRA2
The description is as above. How it is done:
as §1

Test [4] concerns the target T4, Human LILRB4 on transiently transfected HEK293-6E cells (human, UniProt Q8NHJ6 22-448).
T4 construct: whole, on cells; also called hLILRB4
Described as above. As for the experimental part: as §1

The target in test [5] is T5, Human LILRA5 on transiently transfected HEK293-6E cells (human, UniProt A6NI73 42-299).
T5 construct: whole, on cells; also called hLILRA5
T5 sequence (A6NI73 42-299): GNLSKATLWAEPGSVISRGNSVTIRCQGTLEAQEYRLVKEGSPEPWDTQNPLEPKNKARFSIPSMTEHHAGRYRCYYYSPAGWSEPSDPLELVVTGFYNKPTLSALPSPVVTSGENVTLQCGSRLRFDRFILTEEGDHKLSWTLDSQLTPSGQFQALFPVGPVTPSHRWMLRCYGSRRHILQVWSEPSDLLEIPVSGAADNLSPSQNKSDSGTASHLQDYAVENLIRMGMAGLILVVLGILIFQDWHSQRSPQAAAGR
The test is described as above. As for the experimental part: as §1

The target in test [6] is T6, Human LILRB5 on transiently transfected HEK293-6E cells (human, UniProt O75023 24-590).
T6 construct: whole, on cells; also called hLILRB5
T6 sequence (O75023 24-590): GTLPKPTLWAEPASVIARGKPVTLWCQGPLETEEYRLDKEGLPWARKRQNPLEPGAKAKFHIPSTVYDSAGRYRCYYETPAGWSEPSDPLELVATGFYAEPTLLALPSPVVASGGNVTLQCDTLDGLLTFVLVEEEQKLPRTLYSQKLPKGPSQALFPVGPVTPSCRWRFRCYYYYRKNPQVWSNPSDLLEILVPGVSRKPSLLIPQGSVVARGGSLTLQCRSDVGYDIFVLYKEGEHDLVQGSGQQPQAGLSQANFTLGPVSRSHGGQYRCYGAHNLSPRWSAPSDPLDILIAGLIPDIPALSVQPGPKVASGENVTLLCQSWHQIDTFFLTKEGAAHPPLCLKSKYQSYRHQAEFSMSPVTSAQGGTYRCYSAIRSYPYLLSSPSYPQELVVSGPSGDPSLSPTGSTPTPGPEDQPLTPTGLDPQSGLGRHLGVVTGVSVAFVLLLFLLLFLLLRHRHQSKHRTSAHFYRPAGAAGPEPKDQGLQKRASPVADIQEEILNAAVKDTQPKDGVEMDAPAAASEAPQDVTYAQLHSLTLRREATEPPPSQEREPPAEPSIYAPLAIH
The test is described as above. How it is done: as §1

The target of test [7] is T7, Human LILRA6 on transiently transfected HEK293-6E cells (human, UniProt Q6PI73 24-481).
T7 construct: whole, on cells; also called hLILRA6
T7 sequence (Q6PI73 24-481): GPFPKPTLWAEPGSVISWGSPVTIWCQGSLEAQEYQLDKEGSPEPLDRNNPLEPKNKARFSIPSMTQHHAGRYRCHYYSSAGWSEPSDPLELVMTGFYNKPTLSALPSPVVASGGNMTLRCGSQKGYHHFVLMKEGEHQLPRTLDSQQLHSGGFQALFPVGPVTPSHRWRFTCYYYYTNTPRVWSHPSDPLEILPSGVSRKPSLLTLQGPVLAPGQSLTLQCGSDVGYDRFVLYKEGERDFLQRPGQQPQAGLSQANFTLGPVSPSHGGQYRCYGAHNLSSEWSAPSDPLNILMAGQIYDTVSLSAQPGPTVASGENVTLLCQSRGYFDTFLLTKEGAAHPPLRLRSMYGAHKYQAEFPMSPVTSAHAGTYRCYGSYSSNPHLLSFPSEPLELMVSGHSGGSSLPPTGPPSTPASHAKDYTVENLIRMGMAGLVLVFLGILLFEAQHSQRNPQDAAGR
The test is described as above. As for the experimental part: as §1

Test [8] has as its target T8, Human LILRB2 on stably transduced HEK293T cells (human, UniProt Q8N423 22-597).
T8 construct: Lentiviral transduction (G&P Biosciences LTV2992); also called HEK293T-LILRB2; LILRB2-expressing HEK293T cells
Nature of the test: flow cytometry, HEK293T cells stably expressing human LILRB2. As for the experimental part:
To confirm binding of LILRB2 antibodies, flow cytometry binding assays were performed using HEK293T cells stably expressing human LILRB2 (Example 3). […] The B2A-IgG1 and B2A-IgG4 chimeras bound the LILRB2-expressing HEK293T cells, with equivalent EC₅₀ values of 0.21 nM and 0.30 nM respectively.

T8 sequence (Q8N423 other isoform, or with tags, fused parts or gaps limits assumed): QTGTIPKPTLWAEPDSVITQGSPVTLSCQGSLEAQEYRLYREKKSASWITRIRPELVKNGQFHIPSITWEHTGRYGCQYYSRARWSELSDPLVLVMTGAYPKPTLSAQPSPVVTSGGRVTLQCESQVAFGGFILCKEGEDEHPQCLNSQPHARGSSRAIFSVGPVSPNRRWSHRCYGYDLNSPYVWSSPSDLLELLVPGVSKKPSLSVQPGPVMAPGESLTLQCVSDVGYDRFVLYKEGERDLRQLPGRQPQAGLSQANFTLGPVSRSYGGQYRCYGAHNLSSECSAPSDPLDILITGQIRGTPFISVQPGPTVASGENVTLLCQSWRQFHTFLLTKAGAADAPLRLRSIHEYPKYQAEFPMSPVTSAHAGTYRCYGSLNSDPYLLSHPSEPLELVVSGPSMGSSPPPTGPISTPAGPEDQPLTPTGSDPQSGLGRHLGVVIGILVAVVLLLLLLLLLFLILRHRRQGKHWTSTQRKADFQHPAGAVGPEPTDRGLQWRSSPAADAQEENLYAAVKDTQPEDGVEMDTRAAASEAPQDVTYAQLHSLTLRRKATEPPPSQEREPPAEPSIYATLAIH
T3 sequence (Q8N149 24-483): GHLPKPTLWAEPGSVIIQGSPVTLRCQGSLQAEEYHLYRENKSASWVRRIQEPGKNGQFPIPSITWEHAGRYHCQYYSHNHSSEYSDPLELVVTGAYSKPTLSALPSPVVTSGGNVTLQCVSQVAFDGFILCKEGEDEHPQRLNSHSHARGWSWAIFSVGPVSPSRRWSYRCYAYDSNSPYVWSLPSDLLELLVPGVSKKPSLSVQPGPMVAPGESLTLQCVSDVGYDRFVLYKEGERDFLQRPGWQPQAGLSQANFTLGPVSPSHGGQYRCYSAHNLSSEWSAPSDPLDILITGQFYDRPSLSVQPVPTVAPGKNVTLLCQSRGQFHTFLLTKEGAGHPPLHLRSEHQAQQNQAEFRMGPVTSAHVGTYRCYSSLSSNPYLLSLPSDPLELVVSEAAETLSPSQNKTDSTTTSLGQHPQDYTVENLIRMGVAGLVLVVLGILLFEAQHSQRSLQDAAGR
T1 sequence (Q8N423 22-597): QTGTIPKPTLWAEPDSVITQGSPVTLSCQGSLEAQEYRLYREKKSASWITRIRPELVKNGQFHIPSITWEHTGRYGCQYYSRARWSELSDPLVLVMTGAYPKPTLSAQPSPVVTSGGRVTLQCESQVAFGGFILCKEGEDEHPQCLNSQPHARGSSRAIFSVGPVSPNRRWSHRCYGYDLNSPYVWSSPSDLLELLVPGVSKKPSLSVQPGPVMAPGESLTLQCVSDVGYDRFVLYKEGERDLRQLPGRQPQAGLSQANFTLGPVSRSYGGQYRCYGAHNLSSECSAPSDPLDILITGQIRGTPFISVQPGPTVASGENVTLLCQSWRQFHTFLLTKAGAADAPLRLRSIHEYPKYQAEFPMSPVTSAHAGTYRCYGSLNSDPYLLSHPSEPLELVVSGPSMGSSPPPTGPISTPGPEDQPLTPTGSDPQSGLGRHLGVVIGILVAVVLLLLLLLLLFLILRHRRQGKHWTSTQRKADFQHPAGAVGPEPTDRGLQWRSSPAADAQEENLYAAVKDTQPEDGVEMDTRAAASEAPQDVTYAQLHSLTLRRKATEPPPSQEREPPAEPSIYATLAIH

B1: B2H1-55 (antibody, V domains shown)
VH: EVQLLESGGGLVQPGTSLTLSCAASGFSLSTYAMSWVRQAPGKGLEWIGWIYNDGSTYYAAWAKGRFTISKDTSKTTLYLQITSLRAEDTATYFCAREGDYIGYFNIWGQGTLVTVSS
VL: DVVMTQTPSSVSAALGGTVTIKCQASQSIGSNLAWYQLKPGQRPKLLIYAAATLASGGSSRFKGSGSGTDFTLTISSLEPADAATYYCQSYVSGSSDVAFGGGTEVVVK
notes: Humanized variant, human IgG1 / kappa; also called humanized variant B2H1-55; humanized LILRB2 antibody B2H1-55
On to B1, for which the EC50 in test [1] turned out to be 0.0243 µg/mL.

B2: B2A-IgG1 (antibody)
heavy: not shown
light: DVVMTQTPSSVSAALGGTVTIKCQASQSIGSNLAWYQLKPGQRPKLLIYAAATLASGGSSRFKGSGSGTDFTLTISDLECADAATYYCQSYVSGSSDVAFGGGTEVVVKRTVAAPSVFIFPPSDEQLKSGTASVVCLLNNFYPREAKVQWKVDNALQSGNSQESVTEQDSKDSTYSLSSTLTLSKADYEKHKVYACEVTHQGLSSPVTKSFNRGEC
notes: Rabbit variable regions on human IgG1 / kappa constant regions; AF647-conjugated in some flow assays; also called B2A-IgG1 chimera; anti-LILRB2 B2A-IgG1
With B2, the MFI was determined as 163 MFI in test [2]; 38 MFI in test [3]; 40 MFI in test [4]; 127 MFI in test [5]; 147 MFI in test [6]; 223 MFI in test [7]. In test [8], this molecule displayed an EC50 of 0.21 nM.

B3: B2A-IgG4 (antibody)
heavy: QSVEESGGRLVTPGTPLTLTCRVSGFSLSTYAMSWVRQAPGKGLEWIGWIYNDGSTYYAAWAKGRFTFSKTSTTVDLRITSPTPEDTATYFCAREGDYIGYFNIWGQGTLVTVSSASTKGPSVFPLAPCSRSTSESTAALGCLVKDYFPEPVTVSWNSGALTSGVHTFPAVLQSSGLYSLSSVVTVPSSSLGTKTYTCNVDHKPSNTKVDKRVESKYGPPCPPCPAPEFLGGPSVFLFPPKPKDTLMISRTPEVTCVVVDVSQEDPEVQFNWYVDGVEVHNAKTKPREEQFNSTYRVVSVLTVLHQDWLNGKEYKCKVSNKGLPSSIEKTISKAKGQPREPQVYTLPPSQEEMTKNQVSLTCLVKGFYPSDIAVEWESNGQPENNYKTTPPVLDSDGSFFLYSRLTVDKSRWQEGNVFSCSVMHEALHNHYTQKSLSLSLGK
light: DVVMTQTPSSVSAALGGTVTIKCQASQSIGSNLAWYQLKPGQRPKLLIYAAATLASGGSSRFKGSGSGTDFTLTISDLECADAATYYCQSYVSGSSDVAFGGGTEVVVKRTVAAPSVFIFPPSDEQLKSGTASVVCLLNNFYPREAKVQWKVDNALQSGNSQESVTEQDSKDSTYSLSSTLTLSKADYEKHKVYACEVTHQGLSSPVTKSFNRGEC
notes: Rabbit variable regions on human IgG4 / kappa constant regions; also called B2A-IgG4 chimera; Parent B2A-IgG4
Regarding B3, the MFI was 22 MFI in test [2]; 31 MFI in test [3]; 20 MFI in test [4]; 21 MFI in test [5]; 21 MFI in test [6]; 22 MFI in test [7]. Also, in test [8], the EC50 came out at 0.3 nM.
